Assay results published in publication PMC9482650, “Quantitative fragmentomics allow affinity mapping of interactomes” (Nature Communications, 2022).

T1: NHERF3_1, Q5T2W1
T1 sequence (Q5T2W1 4-100, limits assumed, looked up): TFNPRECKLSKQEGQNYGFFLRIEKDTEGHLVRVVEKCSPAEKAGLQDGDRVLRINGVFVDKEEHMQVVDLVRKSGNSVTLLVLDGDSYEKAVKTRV

T2: MPP6, Q9NZW5
T2 sequence (Q9NZW5 125-219, limits assumed, looked up): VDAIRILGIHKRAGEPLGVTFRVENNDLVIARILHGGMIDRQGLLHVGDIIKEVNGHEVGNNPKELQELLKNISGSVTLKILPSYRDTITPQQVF

T3: SYNJ2BP, P57105
T3 sequence (P57105 8-110, limits assumed, looked up): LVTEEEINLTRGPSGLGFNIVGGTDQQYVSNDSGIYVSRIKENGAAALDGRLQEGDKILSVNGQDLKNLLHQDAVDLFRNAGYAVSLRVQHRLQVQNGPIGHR

T4: LIN7B, Q9HAP6
T4 sequence (Q9HAP6 88-185, limits assumed, looked up): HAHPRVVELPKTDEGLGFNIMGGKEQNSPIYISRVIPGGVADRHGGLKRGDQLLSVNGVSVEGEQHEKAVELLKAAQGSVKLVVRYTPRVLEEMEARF

T5: ARHGAP21, Q5T5U3
T5 sequence (Q5T5U3 45-169, limits assumed, looked up): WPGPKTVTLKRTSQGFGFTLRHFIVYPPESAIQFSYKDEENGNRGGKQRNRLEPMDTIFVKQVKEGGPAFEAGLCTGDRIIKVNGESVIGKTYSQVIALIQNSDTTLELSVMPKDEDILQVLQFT

T6: DFNB31_2, Q9P202
T6 sequence (Q9P202 274-371, limits assumed, looked up): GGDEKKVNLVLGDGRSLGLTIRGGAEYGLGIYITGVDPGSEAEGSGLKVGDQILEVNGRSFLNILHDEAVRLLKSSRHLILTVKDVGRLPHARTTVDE

T7: PDZRN3_1, Q9UPQ7
T7 sequence (Q9UPQ7 244-349, limits assumed, looked up): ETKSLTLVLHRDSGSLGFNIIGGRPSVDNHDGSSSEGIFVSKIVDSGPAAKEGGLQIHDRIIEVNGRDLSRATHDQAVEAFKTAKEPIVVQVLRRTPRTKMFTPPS

T8: SNTG1, Q9NSN8
T8 sequence (Q9NSN8 52-150, limits assumed, looked up): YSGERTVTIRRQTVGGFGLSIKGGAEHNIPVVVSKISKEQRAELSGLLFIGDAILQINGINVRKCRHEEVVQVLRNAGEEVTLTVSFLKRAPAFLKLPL

T9: MPP7, Q5T2T1
T9 sequence (Q5T2T1 134-230, limits assumed, looked up): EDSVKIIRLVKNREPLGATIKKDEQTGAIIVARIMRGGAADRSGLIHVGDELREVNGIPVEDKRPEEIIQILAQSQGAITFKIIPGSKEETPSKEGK

T10: HTRA4, P83105
T10 sequence (P83105 378-476, limits assumed, looked up): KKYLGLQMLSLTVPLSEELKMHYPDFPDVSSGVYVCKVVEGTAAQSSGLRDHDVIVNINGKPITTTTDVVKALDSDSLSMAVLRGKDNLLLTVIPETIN

T11: DLG3_2, Q92796
T11 sequence (Q92796 221-321, limits assumed, looked up): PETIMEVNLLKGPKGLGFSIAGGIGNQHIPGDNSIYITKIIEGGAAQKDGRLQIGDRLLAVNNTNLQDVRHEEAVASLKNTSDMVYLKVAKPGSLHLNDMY

T12: GRIP1_3, Q9Y3R0
T12 sequence (Q9Y3R0 247-346, limits assumed, looked up): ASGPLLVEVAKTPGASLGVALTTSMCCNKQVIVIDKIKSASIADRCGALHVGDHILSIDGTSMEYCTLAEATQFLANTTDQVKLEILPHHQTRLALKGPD


Biological target: LDB3, O75112
Sequence (O75112 1-94): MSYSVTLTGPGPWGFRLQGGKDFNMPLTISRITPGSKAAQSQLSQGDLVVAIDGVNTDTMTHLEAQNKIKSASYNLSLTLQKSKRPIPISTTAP
Assay: holdup assay
Set-up: key: below the threshold = too weak to quantify, mostly under pKd 3.1 to 4
Details: plain residues with an end cap or a label only (N-terminal biotin on a linker: ado-ado)

Row | Binder | pKd
1 | QFTLRHWLKV [SLC6A3, Q01959] | below the threshold

Biological target: PICK1, Q9NRD5
Sequence (Q9NRD5 17-115): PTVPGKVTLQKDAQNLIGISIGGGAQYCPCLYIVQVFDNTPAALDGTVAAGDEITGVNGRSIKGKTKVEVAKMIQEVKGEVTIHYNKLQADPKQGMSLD
Assay: holdup assay
Set-up: key: below the threshold = too weak to quantify, mostly under pKd 3.1 to 4
Details: plain residues with an end cap or a label only (N-terminal biotin on a linker: ado-ado)

Row | Binder | pKd
2 | QFTLRHWLKV [SLC6A3, Q01959] | 3.69

Biological target: T1, NHERF3_1, Q5T2W1
Assay: holdup assay
Set-up: key: below the threshold = too weak to quantify, mostly under pKd 3.1 to 4
Details: plain residues with an end cap or a label only (N-terminal biotin on a linker: ado-ado)

Row | Binder | pKd
3 | QFTLRHWLKV [SLC6A3, Q01959] | 3.77

Biological target: GRIP2_5, Q9C0E4
Sequence (Q9C0E4 544-642): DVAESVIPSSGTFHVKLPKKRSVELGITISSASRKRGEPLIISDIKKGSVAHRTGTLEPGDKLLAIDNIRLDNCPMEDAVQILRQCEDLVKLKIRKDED
Assay: holdup assay
Set-up: key: below the threshold = too weak to quantify, mostly under pKd 3.1 to 4
Details: plain residues with an end cap or a label only (N-terminal biotin on a linker: ado-ado)

Row | Binder | pKd
4 | QFTLRHWLKV [SLC6A3, Q01959] | below the threshold

Biological target: T2, MPP6, Q9NZW5
Assay: holdup assay
Set-up: key: below the threshold = too weak to quantify, mostly under pKd 3.1 to 4
Details: plain residues with an end cap or a label only (N-terminal biotin on a linker: ado-ado)

Row | Binder | pKd
5 | QFTLRHWLKV [SLC6A3, Q01959] | below the threshold

Biological target: T3, SYNJ2BP, P57105
Assay: holdup assay
Set-up: key: below the threshold = too weak to quantify, mostly under pKd 3.1 to 4
Details: plain residues with an end cap or a label only (N-terminal biotin on a linker: ado-ado)

Row | Binder | pKd
6 | QFTLRHWLKV [SLC6A3, Q01959] | below the threshold

Biological target: GRIP2_7, Q9C0E4
Sequence (Q9C0E4 934-1023): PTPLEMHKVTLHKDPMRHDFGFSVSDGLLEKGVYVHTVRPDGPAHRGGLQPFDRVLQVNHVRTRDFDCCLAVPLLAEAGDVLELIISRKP
Assay: holdup assay
Set-up: key: below the threshold = too weak to quantify, mostly under pKd 3.1 to 4
Details: plain residues with an end cap or a label only (N-terminal biotin on a linker: ado-ado)

Row | Binder | pKd
7 | QFTLRHWLKV [SLC6A3, Q01959] | below the threshold

Biological target: Inadl_2, Q8NI35
Sequence (Q8NI35 238-335): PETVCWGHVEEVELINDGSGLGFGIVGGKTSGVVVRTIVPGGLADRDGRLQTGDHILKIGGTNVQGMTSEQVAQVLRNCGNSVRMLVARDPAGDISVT
Assay: holdup assay
Set-up: key: below the threshold = too weak to quantify, mostly under pKd 3.1 to 4
Details: plain residues with an end cap or a label only (N-terminal biotin on a linker: ado-ado)

Row | Binder | pKd
8 | QFTLRHWLKV [SLC6A3, Q01959] | below the threshold

Biological target: MAGI1_2, Q96QZ7
Sequence (Q96QZ7 456-580): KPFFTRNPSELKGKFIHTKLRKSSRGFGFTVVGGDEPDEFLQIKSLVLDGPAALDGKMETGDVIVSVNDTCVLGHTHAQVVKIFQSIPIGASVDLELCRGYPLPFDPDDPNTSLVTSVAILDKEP
Assay: holdup assay
Set-up: key: below the threshold = too weak to quantify, mostly under pKd 3.1 to 4
Details: plain residues with an end cap or a label only (N-terminal biotin on a linker: ado-ado)

Row | Binder | pKd
9 | QFTLRHWLKV [SLC6A3, Q01959] | below the threshold

Biological target: T4, LIN7B, Q9HAP6
Assay: holdup assay
Set-up: key: below the threshold = too weak to quantify, mostly under pKd 3.1 to 4
Details: plain residues with an end cap or a label only (N-terminal biotin on a linker: ado-ado)

Row | Binder | pKd
10 | QFTLRHWLKV [SLC6A3, Q01959] | below the threshold

Biological target: T5, ARHGAP21, Q5T5U3
Assay: holdup assay
Set-up: key: below the threshold = too weak to quantify, mostly under pKd 3.1 to 4
Details: plain residues with an end cap or a label only (N-terminal biotin on a linker: ado-ado)

Row | Binder | pKd
11 | QFTLRHWLKV [SLC6A3, Q01959] | 4.09

Biological target: T6, DFNB31_2, Q9P202
Assay: holdup assay
Set-up: key: below the threshold = too weak to quantify, mostly under pKd 3.1 to 4
Details: plain residues with an end cap or a label only (N-terminal biotin on a linker: ado-ado)

Row | Binder | pKd
12 | QFTLRHWLKV [SLC6A3, Q01959] | below the threshold

Biological target: GIPC2, Q8TF65
Sequence (Q8TF65 112-203): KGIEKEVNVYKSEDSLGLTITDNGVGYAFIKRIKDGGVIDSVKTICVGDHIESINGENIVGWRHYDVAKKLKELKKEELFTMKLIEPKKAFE
Assay: holdup assay
Set-up: key: below the threshold = too weak to quantify, mostly under pKd 3.1 to 4
Details: plain residues with an end cap or a label only (N-terminal biotin on a linker: ado-ado)

Row | Binder | pKd
13 | QFTLRHWLKV [SLC6A3, Q01959] | below the threshold

Biological target: FRMPD2_3, Q68DX3
Sequence (Q68DX3 1073-1166): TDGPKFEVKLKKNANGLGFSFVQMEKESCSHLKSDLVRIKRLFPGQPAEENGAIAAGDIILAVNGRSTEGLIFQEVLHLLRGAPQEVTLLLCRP
Assay: holdup assay
Set-up: key: below the threshold = too weak to quantify, mostly under pKd 3.1 to 4
Details: plain residues with an end cap or a label only (N-terminal biotin on a linker: ado-ado)

Row | Binder | pKd
14 | QFTLRHWLKV [SLC6A3, Q01959] | below the threshold

Biological target: Inadl_10, Q8NI35
Sequence (Q8NI35 1673-1763): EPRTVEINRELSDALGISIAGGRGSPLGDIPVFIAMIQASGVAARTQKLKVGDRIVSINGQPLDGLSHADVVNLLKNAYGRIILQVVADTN
Assay: holdup assay
Set-up: key: below the threshold = too weak to quantify, mostly under pKd 3.1 to 4
Details: plain residues with an end cap or a label only (N-terminal biotin on a linker: ado-ado)

Row | Binder | pKd
15 | QFTLRHWLKV [SLC6A3, Q01959] | below the threshold

Biological target: Inadl_6, Q8NI35
Sequence (Q8NI35 1058-1167): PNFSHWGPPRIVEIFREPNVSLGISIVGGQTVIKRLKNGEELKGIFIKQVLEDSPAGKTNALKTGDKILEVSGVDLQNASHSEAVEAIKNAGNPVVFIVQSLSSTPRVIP
Assay: holdup assay
Set-up: key: below the threshold = too weak to quantify, mostly under pKd 3.1 to 4
Details: plain residues with an end cap or a label only (N-terminal biotin on a linker: ado-ado)

Row | Binder | pKd
16 | QFTLRHWLKV [SLC6A3, Q01959] | below the threshold

Biological target: T7, PDZRN3_1, Q9UPQ7
Assay: holdup assay
Set-up: key: below the threshold = too weak to quantify, mostly under pKd 3.1 to 4
Details: plain residues with an end cap or a label only (N-terminal biotin on a linker: ado-ado)

Row | Binder | pKd
17 | QFTLRHWLKV [SLC6A3, Q01959] | below the threshold

Biological target: T8, SNTG1, Q9NSN8
Assay: holdup assay
Set-up: key: below the threshold = too weak to quantify, mostly under pKd 3.1 to 4
Details: plain residues with an end cap or a label only (N-terminal biotin on a linker: ado-ado)

Row | Binder | pKd
18 | QFTLRHWLKV [SLC6A3, Q01959] | below the threshold

Biological target: T9, MPP7, Q5T2T1
Assay: holdup assay
Set-up: key: below the threshold = too weak to quantify, mostly under pKd 3.1 to 4
Details: plain residues with an end cap or a label only (N-terminal biotin on a linker: ado-ado)

Row | Binder | pKd
19 | QFTLRHWLKV [SLC6A3, Q01959] | below the threshold

Biological target: MAGI2_5, Q86UL8
Sequence (Q86UL8 915-1017): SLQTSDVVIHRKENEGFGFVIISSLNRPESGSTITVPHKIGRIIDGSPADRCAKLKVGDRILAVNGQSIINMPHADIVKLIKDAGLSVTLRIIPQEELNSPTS
Assay: holdup assay
Set-up: key: below the threshold = too weak to quantify, mostly under pKd 3.1 to 4
Details: plain residues with an end cap or a label only (N-terminal biotin on a linker: ado-ado)

Row | Binder | pKd
20 | QFTLRHWLKV [SLC6A3, Q01959] | below the threshold

Biological target: MAGI3_2, Q5TCQ9
Sequence (Q5TCQ9 398-503): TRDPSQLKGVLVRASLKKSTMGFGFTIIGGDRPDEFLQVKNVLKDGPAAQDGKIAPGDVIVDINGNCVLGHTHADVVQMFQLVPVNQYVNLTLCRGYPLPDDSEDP
Assay: holdup assay
Set-up: key: below the threshold = too weak to quantify, mostly under pKd 3.1 to 4
Details: plain residues with an end cap or a label only (N-terminal biotin on a linker: ado-ado)

Row | Binder | pKd
21 | QFTLRHWLKV [SLC6A3, Q01959] | below the threshold

Biological target: T10, HTRA4, P83105
Assay: holdup assay
Set-up: key: below the threshold = too weak to quantify, mostly under pKd 3.1 to 4
Details: plain residues with an end cap or a label only (N-terminal biotin on a linker: ado-ado)

Row | Binder | pKd
22 | QFTLRHWLKV [SLC6A3, Q01959] | 4.1

Biological target: T11, DLG3_2, Q92796
Assay: holdup assay
Set-up: key: below the threshold = too weak to quantify, mostly under pKd 3.1 to 4
Details: plain residues with an end cap or a label only (N-terminal biotin on a linker: ado-ado)

Row | Binder | pKd
23 | QFTLRHWLKV [SLC6A3, Q01959] | below the threshold

Biological target: T12, GRIP1_3, Q9Y3R0
Assay: holdup assay
Set-up: key: below the threshold = too weak to quantify, mostly under pKd 3.1 to 4
Details: plain residues with an end cap or a label only (N-terminal biotin on a linker: ado-ado)

Row | Binder | pKd
24 | QFTLRHWLKV [SLC6A3, Q01959] | below the threshold
